From paper PMC6271277, “^68Ga-Labeled Cyclic NGR Peptide for MicroPET Imaging of CD13 Receptor Expression” (Molecules, 2014)

Legend:
[1] = physchem; format: physicochemical; conditions: pH 7.4
Method: The octanol–water partition coefficient value was determined by measuring the distribution (logD) of radioactivity in octanol and PBS. Approximately 5 KBq of ^68Ga- NOTA-G3-NGR (2 μL) was added to a vial containing 0.5 mL of octanol and 0.5 mL of PBS (pH = 7.4). The mixture was then vortexed vigorously for 15 min. Subsequently, the mixture was centrifuged at 12,500 rpm for 5 min to ensure the complete separation of layers. Aliquots of the aqueous and octanol layers were collected, measured in a gamma counter (Beijing PET CO., Ltd., Beijing, China). The octanol–water partition coefficient value was then calculated (n = 5).

[2] = target: T1, CD13 receptor (Homo sapiens, UniProt P15144); assay: Cell-based competitive binding assay against ^125I-NGR; conditions: HT-1080 cells, competitor 10^-12 to 10^-5 M, gamma counter, n = 3; read-out: IC50, inhibition of ^125I-NGR binding to CD13 receptor
T1 construct: endogenous in cells; host or cells: HT-1080 human fibrosarcoma cells
Method: In vitro CD13 binding affinity and specificity of NOTA-G3-NGR were tested by a cell-based competitive assay. The binding of ^125I-NGR to CD13 receptors in HT-1080 cells can be inhibited by NOTA-G3-NGR in a dose-dependent manner (Figure 1b).
In vitro CD13 receptor binding affinity and specificity of NOTA-G3-NGR in HT-1080 cells were assessed using a cell-based competitive assay. ^125I-labeled linear NGR peptide (sequence H-Tyr-Gly-Gly-Cys-Asn-Gly-Arg-Cys-OH) was prepared using the Iodogen method and used as the radioligand for CD13. The non-radiolabeled NOTA-G3-NGR peptide (concentrations at a range from 10^−12 to 10^−5 M) was co-incubated with ^125I-NGR in HT-1080 cells. After washing with ice-cold binding buffer three times, the HT-1080 cells were lysed in 200 µL of lysis buffer. The cell-associated radioactivity was then measured using a gamma counter (Beijing PET CO., Ltd., Beijing, China). The IC50 (50% inhibitory concentration) value was obtained by fitting the data using nonlinear regression with GraphPad Prism (GraphPad Software, San Diego, CA, USA). Experiments were performed in triplicate.

T1 sequence (P15144 whole entry): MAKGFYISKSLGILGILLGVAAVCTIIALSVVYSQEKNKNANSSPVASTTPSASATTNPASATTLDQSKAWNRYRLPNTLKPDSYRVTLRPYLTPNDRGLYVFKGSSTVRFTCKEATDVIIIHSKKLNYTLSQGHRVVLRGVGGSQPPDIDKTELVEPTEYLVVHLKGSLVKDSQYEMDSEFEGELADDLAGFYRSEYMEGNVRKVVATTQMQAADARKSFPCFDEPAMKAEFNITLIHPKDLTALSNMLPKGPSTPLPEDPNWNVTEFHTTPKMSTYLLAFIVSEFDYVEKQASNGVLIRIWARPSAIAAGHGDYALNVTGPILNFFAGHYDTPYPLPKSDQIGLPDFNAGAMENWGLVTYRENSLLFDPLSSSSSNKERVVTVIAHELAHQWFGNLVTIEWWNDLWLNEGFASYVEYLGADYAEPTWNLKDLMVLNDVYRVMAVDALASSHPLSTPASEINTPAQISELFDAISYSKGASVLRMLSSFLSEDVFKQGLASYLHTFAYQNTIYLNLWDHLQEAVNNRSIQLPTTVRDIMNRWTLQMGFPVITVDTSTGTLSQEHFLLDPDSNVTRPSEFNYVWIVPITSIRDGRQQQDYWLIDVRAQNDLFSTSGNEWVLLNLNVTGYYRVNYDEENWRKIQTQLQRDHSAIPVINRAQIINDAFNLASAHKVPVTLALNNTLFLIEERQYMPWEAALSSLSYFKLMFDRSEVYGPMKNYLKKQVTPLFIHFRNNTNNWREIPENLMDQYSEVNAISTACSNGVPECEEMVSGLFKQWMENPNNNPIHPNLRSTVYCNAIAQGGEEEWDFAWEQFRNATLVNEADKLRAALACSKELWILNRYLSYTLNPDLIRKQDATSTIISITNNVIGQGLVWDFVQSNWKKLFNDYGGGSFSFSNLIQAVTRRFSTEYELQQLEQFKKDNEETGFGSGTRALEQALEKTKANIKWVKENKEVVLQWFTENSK

## N=C(N)NCCC[C@@H]1NC(=O)CNC(=O)[C@H](CC(N)=O)NC(=O)[C@@H](NC(=O)CNC(=O)CNC(=O)CNC(=S)Nc2ccc(CC3CN(CC(=O)O)CCN(CC(=O)O)CCN3CC(=O)O)cc2)CSSC[C@@H](C(=O)O)NC1=O (some centres unmarked) [^68Ga-NOTA-G3-NGR, metal not drawn]
[1]
  logD: -2.25 ± 0.17

## N=C(N)NCCC[C@@H]1NC(=O)CNC(=O)[C@H](CC(N)=O)NC(=O)[C@@H](NC(=O)CNC(=O)CNC(=O)CNC(=S)Nc2ccc(CC3CN(CC(=O)O)CCN(CC(=O)O)CCN3CC(=O)O)cc2)CSSC[C@@H](C(=O)O)NC1=O (some centres unmarked) [NOTA-G3-NGR]
[2]
  IC50: 0.0747 ± 0.00391 µM
